Consider 1 molecule from patent publication US20250073347A1 (FORTVITA BIOLOGICS SINGAPORE PTE, published 2025).

This assay has as its target T1, human Claudin18.2 on cells (human, UniProt P56856-2 1-261).
T1 construct: whole, on cells; also called CLDN18.2; hCLDN18.2
The assay can be described thus: flow cytometry on DANG-hCLDN18.2 cells, relative MFI (fold). For orientation: Flow cytometry measures light scatter and fluorescence of single cells or particles in a stream.

Experimental: The cells were centrifuged at 500 g for 5 min, and the cell medium was removed. […] The suspension was left to stand on ice for 30 min. The suspension was centrifuged at 500 g for 5 min, the supernatant was removed, and the cells were washed once with PBS. The goat anti-human Fc PE-labeled secondary antibody (SouthemBiotech, J2815-5H87B) was added at 100 µL/well. The resulting mixture was incubated on ice in the dark for 30 min. The mixture was centrifuged at 500 g for 5 min, the supernatant was removed, and the cells were washed once with PBS. The cells were resuspended in 50 μL of 1×PBS, and the suspension was loaded for FACS assay.

B1: IEX019-02 (HB37A6-SYNtecan E conjugate) (antibody, human IgG1, kappa, V domains shown)
VH: EVQLLDSGGGLVQPGGSLRLSCAASGFTFSSYVMSWVRQAPGKGLNWVSTISHSGGSTYYADSVKGRFTISRDNSKNTLYLQMNSLRAEDTAVYYCAIDAPYYDILTGYRYWGQGTLVTVSS
VL: not shown
modifications: GlcNAc(Fuc)-6-N3-GalNAc at Asn297 conjugated to linker-payload compound 1 (cleavable linker, 2 exatecan); average DAR 3.52
notes: also called SYN-HB37A6-Ex
Regarding B1, the binding result is reported as “binds”.
